# Measurements published in article PMC3058826.
# pKd: −log10 of the molar value.
# Target: H3(1–15)K4 peptide (UniProt P68431)
# Test: ITC
substance,measurement,value
"TRIM24 PHD-Bromo (PHD-linker-Bromo segment, residues 824–1006), wild type (from UniProt O15164 824-1006) (domain or fragment)",pKd,5.07
